What was measured:
[1] = molecular target: c-Myc-containing recombinant protein; test: SPR; KD against WT as reference
[2] = molecular target: c-Myc-containing recombinant protein; test: SPR (Biacore T200), c-Myc-containing recombinant protein immobilised, soluble Fab injected at 5-80 nM, 1:1 Langmuir fit

- Fold change [1]: 1 fold
- Kd [2]: 110 nM
- koff [2]: 0.018 s⁻¹
- kon [2]: 160000 M⁻¹ s⁻¹
B1: aM parental murine Fab (Fab, V domains shown)
VH: QIQLVQSGPELKKPGETVRISCKASGYTFTTAGMQWVQKMPGKGLKWIGWINTHSGVPKYAEDFKGRFAFSLETSASTAYLQMTNLNNEDTATYFCARGYGKGGYFAMDYWGQGTSVTVSS
VL: DVVMTQIPFSLPVSLGDQASISCRSSQSLVHSNGNTYLHWYVQKPGQSPKLLIYKVSNRFSGVPDRFSGSGSGTYFTLKISRVEAEDLGVYFCSQSTRVPWTFGGGTKLEIK

From US20120316085A1
